Patent US11839630B2, “CAR-T cells targeting IL-1RAP and their use” (ETABLISSEMENT FRANCAIS DU SANG, priority 2017, dated 2023)

Tested on: monocyte subpopulation
Test: IL-1RAP cell surface staining of healthy donor monocytes
Type: binding, human
Conditions: 2/5 peripheral blood and 3/5 bone marrow from healthy donors
Protocol: FIG. 23: Effect of IL-1RAP CAR T cells on healthy hematopoietic cells and efficiency of the safety suicide gene iCASP9 cassette. (A) IL-1RAP cell surface expression on peripheral blood (left) or bone marrow (right) cells from healthy donors (n=5). SSC-A/CD45+ allowed discrimination of subpopulations as lymphocytes (SSC-A low), monocytes (CD33+), granulocytes (SSC-A high), or HSCs (CD33−/CD34+). RFI was calculated from isotype staining and provided in each window. (B) Representative (1 of 3) IL-1RAP staining of whole human cord blood cells. IL-1RAP staining is provided for whole CD34+, CD34+/CD38−, and CD34+/CD38+ HSC cord blood subpopulations. […] Percentages were calculated using absolute cell number determined using Trucount™ tubes based on 5000 fluorescent-bead cytometry acquisition. […] The quantification was performed after acquiring 5000 fluorescent beads. […] Cell killing was calculated as follows: % Dead cells=[1−(absolute number of viable cells in AP1903-treated cells/absolute number of viable cells in untreated cells)]×100. […] (G) Absolute quantification of IL-1RAP CAR T cells injected in a tumor (CML KU812, i.v.) xenograft NSG model 24 h after i.p. AP1903 (white bars) treatment (n=3 mice/group). […]

B1: #E3C3: mouse anti-hIL-1RAP monoclonal antibody subclone generated by standard hybridoma technique; VH SEQ ID NO: 2, VL SEQ ID NO: 4 (antibody, V domains shown)
VH: MGWSCIILFLVATATGVNSQVQLQQPGAELMMPGASVKVSCEASGYTFTDSWMHWVKQRPGQGLEWIGAIDPSDSYTTYNQKFTGKATLSVDESSNTAYMQLSSLTSEDSAVYYCARYYSGSNYISPFPYWGQGTLVTVSA
VL: MESQIQVFVFVFLWLSGVDGDIVMTQSHKFMSTSVGDRVTITCKASLDVSTAVAWYQQKPGQSPKLLIYSASYRYTGVPDRFTGSGSGTDFTFTISSVQAEDLAVYYCQQHYSPPFTFGSGTNLEIK
modifications: Amino acid sequence of chain H (VH) of murine scFv anti-IL-1RAP; Amino acid sequence of chain K (VL) of murine scFv anti-IL-1RAP
  RFI of monocyte staining (weak staining): < 2
